Assay results reported in patent US20190194350A1 (UNIVERSITAT STUTTGART, published 2019).

Legend:
[1] = molecular target: T1, HER3 on HER3-expressing tumor cells (human, UniProt P21860 20-1342); assay: flow cytometry on MCF-7 cells, PE-labeled secondary antibody; the small table prints no unit, the axis is Concentration [nM] [panel MCF7]
T1 construct: Endogenous HER3 of human tumor cell lines (MCF-7, FaDu, BT474, A431, NCI-N87, A549, SKBR-3, Colo205, HCT-116, A375 and melanoma lines); also called cellular receptor HER3; cell surface expressed HER3

[2] = molecular target: T1, HER3 on HER3-expressing tumor cells; assay: flow cytometry, A549 cells
[3] = molecular target: T2, HER3 fragment aa 329-550 Fc fusion protein (human, UniProt P21860 329-550); assay: ELISA, coated HER3-Fc fragments
T2 construct: not shown: IgG1 Fc part

[4] = molecular target: T3, HER3 fragment aa 20-550 Fc fusion protein (DI-III plus part of DIV) (human, UniProt P21860 20-550); assay: ELISA, coated HER3-Fc fragments
T3 construct: not shown: IgG1 Fc part

[5] = molecular target: T4, HER3 fragment aa 359-587 Fc fusion protein (human, UniProt P21860 359-587); assay: ELISA, coated HER3-Fc fragments
T4 construct: not shown: IgG1 Fc part

[6] = molecular target: T1, HER3 on HER3-expressing tumor cells; assay: flow cytometry, A431 cells
[7] = molecular target: T1, HER3 on HER3-expressing tumor cells; assay: flow cytometry on FaDu cells, PE-labeled secondary antibody; the small table prints no unit, the axis is Concentration [nM] [panel FADU]
[8] = molecular target: T1, HER3 on HER3-expressing tumor cells; assay: flow cytometry, MCF-7 cells
[9] = molecular target: T1, HER3 on HER3-expressing tumor cells; assay: flow cytometry, MCF-7 cells; MCF-7 cells
[10] = molecular target: T5, HER3-His (HER3 aa 27-599 of the extracellular domain fused C-terminally with a hexahistidyl-tag) (human, UniProt P21860 27-599); assay: quartz crystal microbalance (Attana), IgG 3-43 on chip, HER3-his as analyte
T5 construct: also called soluble His-tagged HER3; His-tagged extracellular domain of HER3; not shown: C-terminal hexahistidyl-tag

HER3-ECD protein = molecular target: T6, HER3-ECD protein (Homo sapiens (Human), UniProt P21860 20-643); assay: ELISA, immobilized HER3-ECD
T6 construct: also called receptor-ECD protein

HER3 DIV-Fc (aa 532-643) = molecular target: T7, HER3 DIV-Fc (aa 532-643) (human, UniProt P21860 532-643); assay: ELISA, coated HER3-Fc fragments at 10 µg/ml, anti-human Fab-HRP
T7 construct: not shown: IgG1 Fc part

[11] = molecular target: T8, HER3 fragment aa 359-643 Fc fusion protein (part of DIII and the entire DIV) (human, UniProt P21860 359-643); assay: as above
T8 construct: not shown: IgG1 Fc part

[12] = molecular target: T9, HER3 fragment aa 395-643 Fc fusion protein (part of DIII and the entire DIV) (human, UniProt P21860 395-643); assay: as above
T9 construct: not shown: IgG1 Fc part

[13] = molecular target: T10, Fc fusion protein containing HER3 DI-DII and a short part of DIII (aa 20-358) (human, UniProt P21860 20-358); assay: as above
T10 construct: not shown: IgG1 Fc part

[14] = molecular target: T11, HER3 fragment aa 458-643 Fc fusion protein (part of DIII and the entire DIV) (human, UniProt P21860 458-643); assay: as above
T11 construct: not shown: IgG1 Fc part

[15] = molecular target: T12, Fc fusion protein containing HER3 DI-DIII (aa 20-531; lacking DIV) (human, UniProt P21860 20-531); assay: as above
T12 construct: also called DI-DIII Fc; not shown: IgG1 Fc part

[16] = molecular target: T13, mouse HER3-Fc fusion protein (extracellular region of mouse HER3 fused to a human Fc region) (mouse, UniProt Q61526 20-641); assay: ELISA, coated mouse HER3-Fc, serial dilution of IgG 3-43, absorption at 450 nm
T13 construct: extracellular domain; not shown: human Fc region

[17] = molecular target: T14, HER3-Fc fusion protein (Fc fusion protein of the extracellular domain of human HER3, limits not stated at the … (human, UniProt P21860 20-643)); assay: quartz crystal microbalance (Attana), IgG 3-43 on chip, HER3-Fc as analyte (bivalent)
T14 construct: also called wild-type HER3-Fc; human HER3-Fc fusion protein; not shown: human Fc region

[18] = molecular target: T1, HER3 on HER3-expressing tumor cells; assay: flow cytometry, FaDu cells (text; Table 3 prints 0.30)
[19] = molecular target: T1, HER3 on HER3-expressing tumor cells; assay: flow cytometry on NCI-N87 cells, PE-labeled secondary antibody; the small table prints no unit, the axis is Concentration [nM] [panel NCI-N87]
[20] = molecular target: T1, HER3 on HER3-expressing tumor cells; assay: flow cytometry on BT474 cells, PE-labeled secondary antibody; the small table prints no unit, the axis is Concentration [nM] [panel BT474]
[21] = molecular target: T14, HER3-Fc fusion protein (Fc fusion …); assay: quartz crystal microbalance (Attana), IgG 3-43 on chip, HER3-Fc as analyte
[22] = molecular target: T1, HER3 on HER3-expressing tumor cells; assay: flow cytometry, FaDu cells
[23] = molecular target: T1, HER3 on HER3-expressing tumor cells; assay: flow cytometry on A549 cells, PE-labeled secondary antibody; the small table prints no unit, the axis is Concentration [nM] [panel A549]
[24] = molecular target: T1, HER3 on HER3-expressing tumor cells; assay: flow cytometry, FaDu cells; FaDu cells
[25] = molecular target: T1, HER3 on HER3-expressing tumor cells; assay: flow cytometry, NCI-N87 cells
[26] = molecular target: T1, HER3 on HER3-expressing tumor cells; assay: flow cytometry, FaDu cells; FaDu cells; Table 3 experiment, alongside scDb hu225x3-43-Fc
[27] = molecular target: T1, HER3 on HER3-expressing tumor cells; assay: flow cytometry, BT474 cells
[28] = molecular target: T1, HER3 on HER3-expressing tumor cells; assay: flow cytometry on A431 cells, PE-labeled secondary antibody; the small table prints no unit, the axis is Concentration [nM] [panel A431]
[29] = molecular target: T1, HER3 on HER3-expressing tumor cells; assay: flow cytometry, SKBR-3 cells; SKBR-3 cells

T13 sequence (Q61526 20-641): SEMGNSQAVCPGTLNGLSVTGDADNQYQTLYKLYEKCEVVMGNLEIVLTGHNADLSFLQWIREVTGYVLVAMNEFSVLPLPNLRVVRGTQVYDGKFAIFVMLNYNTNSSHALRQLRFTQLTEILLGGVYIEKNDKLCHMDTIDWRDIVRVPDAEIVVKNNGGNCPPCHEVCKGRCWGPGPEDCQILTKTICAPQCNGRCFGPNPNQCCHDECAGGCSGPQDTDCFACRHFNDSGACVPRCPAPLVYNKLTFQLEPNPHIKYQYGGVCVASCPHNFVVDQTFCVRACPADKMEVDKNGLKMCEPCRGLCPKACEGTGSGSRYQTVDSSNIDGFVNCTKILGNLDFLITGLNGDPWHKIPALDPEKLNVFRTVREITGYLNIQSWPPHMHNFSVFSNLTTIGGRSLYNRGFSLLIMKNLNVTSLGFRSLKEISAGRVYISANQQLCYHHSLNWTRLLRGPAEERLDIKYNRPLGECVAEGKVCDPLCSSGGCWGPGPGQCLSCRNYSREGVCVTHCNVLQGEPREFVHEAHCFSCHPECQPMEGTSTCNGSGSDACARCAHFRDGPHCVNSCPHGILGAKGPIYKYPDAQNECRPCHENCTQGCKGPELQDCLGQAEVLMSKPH

B1: IgG 3-43 (antibody)
heavy: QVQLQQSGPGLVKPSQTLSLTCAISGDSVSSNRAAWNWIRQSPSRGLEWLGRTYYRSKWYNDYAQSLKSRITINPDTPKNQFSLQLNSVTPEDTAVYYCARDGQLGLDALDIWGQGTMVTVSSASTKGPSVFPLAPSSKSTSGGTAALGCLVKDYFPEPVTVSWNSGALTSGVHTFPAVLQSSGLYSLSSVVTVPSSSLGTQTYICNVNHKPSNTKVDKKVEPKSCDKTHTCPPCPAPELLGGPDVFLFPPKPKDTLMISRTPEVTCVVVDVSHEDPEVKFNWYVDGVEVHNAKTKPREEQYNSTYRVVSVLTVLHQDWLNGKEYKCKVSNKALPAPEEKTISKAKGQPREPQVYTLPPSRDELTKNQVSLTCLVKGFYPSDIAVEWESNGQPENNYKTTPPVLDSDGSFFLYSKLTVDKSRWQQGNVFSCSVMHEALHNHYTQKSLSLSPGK
light: QAGLTQPPAVSVAPGQTASITCGRDNIGSRSVHWYQQKPGQAPVLVVYDDSDRPAGIPERFSGSNYENTATLTISRVEAGDEADYYCQVWGITSDHVVFGGGTKLTVLCGQPKAAPSVTLFPPSSEELQANKATLVCLISDFYPGAVTVAWKADSSPVKAGVETTTPSKQSNNKYAASSYLSLTPEQWKSHRSYSCQVTHEGSTVEKTVAPTECS
notes: also called 3-43-IgG; 3-43 IgG
B1 was tested, and the EC50 [1] was 0.0365 nM, the EC50 [2] was 0.053 nM and the binding result [3] was “no binding”. The binding result [4] was “no binding”, the binding result [5] was “no binding” and the EC50 [6] was 0.045 nM. For the same binder, the EC50 [7] was 0.0302 nM, the EC50 [8] was 0.037 nM and the EC50 [9] was 0.021 nM. The koff [10] was 0.00696 s⁻¹, the kon [10] was 622000 M⁻¹ s⁻¹ and the EC50 (HER3-ECD protein) was 0.33 nM. B1: no binding (HER3 DIV-Fc (aa 532-643)); no binding [11]; no binding [12]. B1: no binding [13]; no binding [14]; no binding [15]. The “EC50 (read off the curve)” value [16] was about 3 nM, the Kd [17] was 0.22 nM and the EC50 [18] was 0.006 nM. The EC50 [19] was 0.0266 nM, the EC50 [20] was 0.0743 nM and the koff [21] was 0.000103 s⁻¹. It also gave a kon [21] of 468000 M⁻¹ s⁻¹, an EC50 [22] of 0.03 nM and an EC50 [23] of 0.0536 nM. For the same binder, the EC50 [24] was 0.003 nM, the EC50 [25] was 0.027 nM and the EC50 [26] was 0.3 nM. The EC50 [27] was 0.074 nM, the EC50 [28] was 0.0445 nM and the EC50 [29] was 0.022 nM.
